In patent US20080044360A1 (COLLAGEN MEDICAL, published 2008):
Bridge positions count the residues as written; N and C are the ends. Square brackets hold non-standard residues; d marks the D form. Primed or numbered codes have the meaning given here. Ends that are not written are not given here. 1,4 AMB(Gd^T) = not defined here; Gd^T = not defined here; Gd^T″ = GdDTPA-thiourea

Columns and labels:
[1] = target: T1, human collagen type I, acid soluble, extracted from placenta (Sigma C7774) (human, UniProt P02452 162-1218; P08123 80-1119); experiment: dried collagen assay
T1 construct: tissue extract, gelled and dried in wells; also called dried human collagen; h-Collagen
T1 sequence (P02452 162-1218 limits assumed, chain 1 of 2): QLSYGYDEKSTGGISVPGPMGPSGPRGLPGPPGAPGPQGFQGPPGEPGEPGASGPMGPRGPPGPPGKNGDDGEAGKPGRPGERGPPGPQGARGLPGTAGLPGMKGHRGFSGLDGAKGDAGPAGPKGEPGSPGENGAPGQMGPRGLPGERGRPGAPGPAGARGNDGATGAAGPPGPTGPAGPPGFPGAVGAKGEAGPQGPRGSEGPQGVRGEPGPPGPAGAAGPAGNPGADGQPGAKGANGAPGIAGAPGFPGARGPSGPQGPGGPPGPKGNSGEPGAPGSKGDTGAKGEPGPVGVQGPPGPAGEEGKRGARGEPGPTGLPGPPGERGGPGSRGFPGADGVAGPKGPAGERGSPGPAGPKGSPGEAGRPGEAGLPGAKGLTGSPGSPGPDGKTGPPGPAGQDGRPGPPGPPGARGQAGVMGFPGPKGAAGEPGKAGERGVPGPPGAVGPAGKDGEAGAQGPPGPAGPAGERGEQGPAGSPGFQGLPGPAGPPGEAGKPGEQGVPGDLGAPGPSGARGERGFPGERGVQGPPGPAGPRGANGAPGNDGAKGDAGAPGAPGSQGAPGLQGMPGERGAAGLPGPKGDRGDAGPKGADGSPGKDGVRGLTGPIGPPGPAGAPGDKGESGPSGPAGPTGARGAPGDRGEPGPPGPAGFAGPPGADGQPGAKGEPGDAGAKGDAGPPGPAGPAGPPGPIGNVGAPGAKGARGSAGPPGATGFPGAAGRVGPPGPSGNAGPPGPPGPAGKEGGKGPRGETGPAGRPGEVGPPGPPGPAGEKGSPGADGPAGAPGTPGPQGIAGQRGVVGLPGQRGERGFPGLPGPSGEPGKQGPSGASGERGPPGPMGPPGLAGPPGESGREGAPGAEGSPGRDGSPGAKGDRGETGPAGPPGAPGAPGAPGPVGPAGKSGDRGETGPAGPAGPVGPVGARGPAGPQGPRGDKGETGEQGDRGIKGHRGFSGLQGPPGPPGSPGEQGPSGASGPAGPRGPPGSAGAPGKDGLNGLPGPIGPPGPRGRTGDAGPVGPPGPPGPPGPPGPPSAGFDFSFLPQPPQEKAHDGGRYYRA
T1 sequence (P08123 80-1119 limits assumed, chain 2 of 2): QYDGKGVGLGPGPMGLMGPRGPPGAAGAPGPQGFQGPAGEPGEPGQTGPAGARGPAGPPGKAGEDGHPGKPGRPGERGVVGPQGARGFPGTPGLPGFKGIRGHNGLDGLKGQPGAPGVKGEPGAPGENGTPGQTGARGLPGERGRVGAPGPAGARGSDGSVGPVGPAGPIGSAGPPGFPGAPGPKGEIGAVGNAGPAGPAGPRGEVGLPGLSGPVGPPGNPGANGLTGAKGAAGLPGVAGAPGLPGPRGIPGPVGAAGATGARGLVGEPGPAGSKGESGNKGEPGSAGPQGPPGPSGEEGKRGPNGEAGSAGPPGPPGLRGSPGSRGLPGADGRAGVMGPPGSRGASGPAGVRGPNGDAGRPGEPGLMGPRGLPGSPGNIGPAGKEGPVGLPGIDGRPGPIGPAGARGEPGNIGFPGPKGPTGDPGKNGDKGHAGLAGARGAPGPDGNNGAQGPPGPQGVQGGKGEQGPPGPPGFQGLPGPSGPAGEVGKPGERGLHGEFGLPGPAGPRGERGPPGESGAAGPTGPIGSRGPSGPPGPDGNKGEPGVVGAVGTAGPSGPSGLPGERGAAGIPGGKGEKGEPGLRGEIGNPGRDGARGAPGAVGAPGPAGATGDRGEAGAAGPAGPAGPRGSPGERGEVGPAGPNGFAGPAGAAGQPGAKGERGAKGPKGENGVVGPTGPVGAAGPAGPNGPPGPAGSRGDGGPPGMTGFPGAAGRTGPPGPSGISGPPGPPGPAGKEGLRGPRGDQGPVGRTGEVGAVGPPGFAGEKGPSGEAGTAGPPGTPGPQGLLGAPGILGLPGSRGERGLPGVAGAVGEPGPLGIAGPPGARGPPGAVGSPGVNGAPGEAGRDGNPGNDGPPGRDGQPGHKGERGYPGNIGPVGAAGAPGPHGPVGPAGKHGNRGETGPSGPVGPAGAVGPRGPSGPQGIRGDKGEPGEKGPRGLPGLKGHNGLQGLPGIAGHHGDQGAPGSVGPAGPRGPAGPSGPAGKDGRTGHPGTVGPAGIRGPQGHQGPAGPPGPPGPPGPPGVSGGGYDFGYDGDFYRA

[2] = target: T2, rat collagen, acid soluble, type I, rat tail (Upstate 08-115) (rat, UniProt P02454 152-1207; P02466 86-1125); experiment: dried collagen assay
T2 construct: tissue extract, gelled and dried in wells; also called dried rat collagen
T2 sequence (P02454 152-1207, chain 1 of 2): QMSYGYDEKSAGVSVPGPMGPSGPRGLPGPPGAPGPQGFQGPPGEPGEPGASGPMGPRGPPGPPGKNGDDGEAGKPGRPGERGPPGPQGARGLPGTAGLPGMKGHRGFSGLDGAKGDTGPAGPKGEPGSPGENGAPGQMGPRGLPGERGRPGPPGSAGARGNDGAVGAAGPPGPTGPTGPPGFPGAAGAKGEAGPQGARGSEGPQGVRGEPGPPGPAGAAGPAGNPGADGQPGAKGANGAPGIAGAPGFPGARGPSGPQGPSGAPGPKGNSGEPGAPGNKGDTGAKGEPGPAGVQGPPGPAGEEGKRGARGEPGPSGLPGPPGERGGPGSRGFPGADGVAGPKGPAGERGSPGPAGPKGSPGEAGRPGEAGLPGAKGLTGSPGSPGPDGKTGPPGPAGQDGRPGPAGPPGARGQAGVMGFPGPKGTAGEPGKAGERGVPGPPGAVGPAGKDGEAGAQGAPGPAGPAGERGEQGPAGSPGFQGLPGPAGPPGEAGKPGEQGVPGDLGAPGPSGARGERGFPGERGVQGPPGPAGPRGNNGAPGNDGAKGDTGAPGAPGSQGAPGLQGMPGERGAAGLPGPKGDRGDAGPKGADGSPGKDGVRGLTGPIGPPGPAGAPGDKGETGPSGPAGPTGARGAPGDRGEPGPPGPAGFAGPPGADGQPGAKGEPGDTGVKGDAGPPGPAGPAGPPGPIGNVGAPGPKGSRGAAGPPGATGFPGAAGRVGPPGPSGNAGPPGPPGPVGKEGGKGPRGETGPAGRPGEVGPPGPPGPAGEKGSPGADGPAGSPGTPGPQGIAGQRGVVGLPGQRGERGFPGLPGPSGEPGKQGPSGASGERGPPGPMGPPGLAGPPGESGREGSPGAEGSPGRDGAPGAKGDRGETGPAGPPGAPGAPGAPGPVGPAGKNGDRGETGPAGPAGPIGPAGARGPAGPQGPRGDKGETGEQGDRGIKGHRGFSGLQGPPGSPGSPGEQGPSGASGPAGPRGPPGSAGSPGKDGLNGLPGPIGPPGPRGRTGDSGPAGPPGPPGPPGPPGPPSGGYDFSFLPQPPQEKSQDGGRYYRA
T2 sequence (P02466 86-1125, chain 2 of 2): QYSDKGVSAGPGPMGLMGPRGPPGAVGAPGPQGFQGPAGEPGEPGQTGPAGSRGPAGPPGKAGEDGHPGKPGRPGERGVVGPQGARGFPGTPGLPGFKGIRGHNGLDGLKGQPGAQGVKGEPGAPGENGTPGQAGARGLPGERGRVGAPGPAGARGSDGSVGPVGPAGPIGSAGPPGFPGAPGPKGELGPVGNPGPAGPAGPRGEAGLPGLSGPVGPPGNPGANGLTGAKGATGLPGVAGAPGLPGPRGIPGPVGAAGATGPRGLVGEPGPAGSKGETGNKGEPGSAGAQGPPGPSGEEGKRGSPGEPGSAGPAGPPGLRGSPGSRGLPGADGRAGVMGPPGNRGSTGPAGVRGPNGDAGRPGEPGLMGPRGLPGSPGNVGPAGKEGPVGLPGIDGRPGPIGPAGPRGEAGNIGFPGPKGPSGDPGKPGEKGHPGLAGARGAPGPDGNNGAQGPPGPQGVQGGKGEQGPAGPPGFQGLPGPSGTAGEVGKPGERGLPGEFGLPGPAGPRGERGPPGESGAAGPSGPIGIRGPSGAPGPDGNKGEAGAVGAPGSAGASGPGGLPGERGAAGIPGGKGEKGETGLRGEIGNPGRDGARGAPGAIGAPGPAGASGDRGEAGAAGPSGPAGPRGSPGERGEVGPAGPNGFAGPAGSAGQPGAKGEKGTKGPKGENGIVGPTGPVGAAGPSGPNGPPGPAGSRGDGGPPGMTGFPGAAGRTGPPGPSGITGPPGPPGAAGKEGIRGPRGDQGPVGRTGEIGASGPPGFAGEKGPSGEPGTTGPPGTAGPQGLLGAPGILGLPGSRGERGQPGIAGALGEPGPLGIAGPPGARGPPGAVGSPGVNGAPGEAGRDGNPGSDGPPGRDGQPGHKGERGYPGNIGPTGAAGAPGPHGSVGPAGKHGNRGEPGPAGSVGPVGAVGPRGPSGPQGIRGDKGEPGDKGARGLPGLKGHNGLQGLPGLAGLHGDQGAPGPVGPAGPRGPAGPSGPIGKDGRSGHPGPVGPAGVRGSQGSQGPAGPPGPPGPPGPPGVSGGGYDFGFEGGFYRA

Row | Binder | % bound [1] [%] | % bound [2] [%]
1 | {Gd^T″}-GQWHCTTYFPHHYCLYG-{1,4 AMB(Gd^T)} (disulfide 5-14 (inferred); reading uncertain) [Compound ID 816] | 48 | 48
2 | {Gd^T″}-K(Gd^T″)K(Gd^T″)WHCYTYFPHHYCVYG (disulfide 5-14 (inferred); not fully specified (C-terminus)) [Compound ID 801] | 81 | 77
3 | {Gd^T}-GQWHCTTDFPHHYCLYG (disulfide 5-14 (inferred); not fully specified (C-terminus); reading uncertain) [Compound ID 851] | 50 | 41
4 | {Gd^T″}-GQWSCTTRFPHHYCLYG (disulfide 5-14 (inferred)) [Compound ID 870] | 30 | 28
5 | {Gd^T}-G[dQ]WHCTTRFPHHYCLYG (disulfide 5-14 (inferred); not fully specified (C-terminus); reading uncertain) [Compound ID 866] | 60 | 38
6 | {Gd^T″}-GQWHCTTRFPHHYCK(Gd^T″)YG (disulfide 5-14 (inferred); not fully specified (C-terminus)) [Compound ID 815] | 66 | 59
7 | {Gd^T}-GQWHCTTAFPHHYCLYG (disulfide 5-14 (inferred); not fully specified (C-terminus); reading uncertain) [Compound ID 853] | 66 | 57
8 | {Gd^T}-GQWHCTTRFPAHYCLYG (disulfide 5-14 (inferred); not fully specified (C-terminus); reading uncertain) [Compound ID 865] | 30 | 17
9 | {Gd^T″}-GQWHCTTK(Gd^T″)FPHHYCLYG (disulfide 5-14 (inferred); not fully specified (C-terminus)) [Compound ID 813] | 65 | 55
10 | {Gd^T}-GQWHCTTRYPHHYCLYG (disulfide 5-14 (inferred); not fully specified (C-terminus); reading uncertain) [Compound ID 859] | 47 | 38
11 | {Gd^T}-GQWHCTTRFPHHYCAYG (disulfide 5-14 (inferred); not fully specified (C-terminus); reading uncertain) [Compound ID 855] | 27 | 15
12 | {Gd^T}-GAWHCTTRFPHHYCLYG (disulfide 5-14 (inferred); not fully specified (C-terminus); reading uncertain) [Compound ID 857] | 67 | 69
13 | {Gd^T″}-GQWACTTRFPHHYCLYG (disulfide 5-14 (inferred)) [Compound ID 876] | 48 | 26
14 | {Gd^T}-GQWHCTTRFPHH[dY]CLYG (disulfide 5-14 (inferred); not fully specified (C-terminus); reading uncertain) [Compound ID 864] | 64 | 50
